Experimental data reported in US20030165543A1 (LOMA LINDA UNIVERSITY, published 2003).

Biological target: bovine serum albumin (bovine, UniProt P02769 25-607)
Test: GM1-ELISA binding assay

bovine serum albumin, sequence (P02769 25-607 limits assumed): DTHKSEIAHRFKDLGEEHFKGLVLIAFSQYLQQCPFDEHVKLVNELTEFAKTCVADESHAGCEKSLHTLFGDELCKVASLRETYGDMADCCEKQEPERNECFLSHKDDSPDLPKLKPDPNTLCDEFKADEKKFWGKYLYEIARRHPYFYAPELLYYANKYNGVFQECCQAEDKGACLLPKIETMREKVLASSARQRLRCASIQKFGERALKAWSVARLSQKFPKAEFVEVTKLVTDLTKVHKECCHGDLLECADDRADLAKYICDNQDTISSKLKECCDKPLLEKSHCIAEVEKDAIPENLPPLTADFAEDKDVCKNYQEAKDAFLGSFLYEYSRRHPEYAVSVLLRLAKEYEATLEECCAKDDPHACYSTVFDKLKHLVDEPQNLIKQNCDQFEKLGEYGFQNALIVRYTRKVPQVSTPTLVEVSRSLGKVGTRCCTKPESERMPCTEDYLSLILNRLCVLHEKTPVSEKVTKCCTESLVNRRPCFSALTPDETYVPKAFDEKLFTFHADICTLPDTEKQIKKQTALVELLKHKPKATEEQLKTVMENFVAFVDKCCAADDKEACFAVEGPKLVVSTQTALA

B1: bacterial cholera toxin B subunit (CTB), pentameric (other)
chain: TPQNITDLCAEYHNTQIYTLNDKIFSYTESLAGKREMAIITFKNGAIFQVEVPGSQHIDSQKKAIERMKDTLRIAYLTEAKVEKLCVWNNKTPHAIAAISMAN
Q: Does B1 bind?
A: Result: no binding
